Consider 13 molecules from US20230265151A1, “GIP/GLP1 CO-AGONIST COMPOUNDS” (priority 2020, published 2023).

*1 amine or outer side, *2 acyl side, *3 side chain or, on linkers, in order; H or OH if unused. Where no end group is shown, it is not given here. Side-chain parts run from the residue outwards. [ ]: non-standard residue; d: D form. The star is where a group is joined. αMePhe(2-F) = C[C@](N)(Cc1ccccc1F)C(=O)O; γGlu = O=C(O)[C@H](CCC(=O)[*:2])N[*:1]; C14 diacid = O=C(O)CCCCCCCCCCCCC(=O)*; αMeY = C[C@](N)(Cc1ccc(O)cc1)C(=O)O; αMeF = C[C@](N)(Cc1ccccc1)C(=O)O; αMeL = CC(C)C[C@](C)(N)C(=O)O; Orn = NCCC[C@H](N)C(=O)O; AEEA = NCCOCCOCC(=O)O; Aib = CC(C)(N)C(=O)O

What all share (experiment): cell-based or functional assay
One assay has as its target T1, human GIP receptor (human, UniProt P48546 22-466).
T1 sequence (looked up): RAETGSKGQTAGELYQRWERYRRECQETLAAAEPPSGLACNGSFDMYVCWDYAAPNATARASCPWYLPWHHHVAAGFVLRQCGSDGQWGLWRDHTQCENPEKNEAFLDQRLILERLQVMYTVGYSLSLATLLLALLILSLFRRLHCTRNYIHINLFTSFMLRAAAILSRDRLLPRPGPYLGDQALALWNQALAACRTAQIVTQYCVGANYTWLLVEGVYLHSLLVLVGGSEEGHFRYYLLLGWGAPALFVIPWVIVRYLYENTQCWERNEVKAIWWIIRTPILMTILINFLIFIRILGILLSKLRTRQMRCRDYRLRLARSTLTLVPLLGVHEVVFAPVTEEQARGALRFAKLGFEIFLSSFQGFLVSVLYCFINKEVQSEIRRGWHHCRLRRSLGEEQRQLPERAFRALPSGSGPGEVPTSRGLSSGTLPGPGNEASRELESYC

A further assay has as its target human GLP-1 receptor (human, UniProt P43220 24-463).
The next assay concerns the target human glucagon receptor (human, UniProt P47871 26-477).

B1: Example 93 (peptide)
peptide: Y[Aib]EGT[αMePhe(2-F)]TSDV[Aib]I[αMeL]LD[Orn]K([AEEA-AEEA-γGlu-C14 diacid])AQ[Aib]E[αMeF]I[dE][αMeY]LIEGGK([AEEA-AEEA-γGlu-C14 diacid])SSGAPPPS-NH2
Turning to B1, the “EC50, cAMP” value with human GIP receptor is 0.0448 nM; with human GLP-1 receptor, 0.575 nM; with human glucagon receptor it was greater than 9950 nM. The “Emax, cAMP” value with human GIP receptor was determined as 99.4%.

B2: Example 106 (peptide)
peptide: Y[Aib]EGT[αMePhe(2-F)]TSDK([AEEA-AEEA-γGlu-C14 diacid])SI[αMeL]LD[Orn]IAQ[Aib]EFIK([AEEA-AEEA-γGlu-C14 diacid])[αMeY]LIEGGPSSGAPPPS-NH2
B2: the figures for the “EC50, cAMP” value with human GIP receptor, with human GLP-1 receptor and in the assay with human glucagon receptor were 0.0385 nM, 0.296 nM and greater than 9950 nM, respectively. Also, the “Emax, cAMP” value with human GIP receptor came out at 98.7%.

B3: Example 80 (peptide)
peptide: YXEGTXTSDXSIXLDXKAQXEFIKXLIEGGPSSGAPPPS
modifications: Aib2, αMeF(2F)6, 4Pal10, αMeL13, Orn16, Aib20, αMeY25, K17 and K24: K(AEEA3-(γ-Glu)-CO-(CH2)12-CO2H), C-terminal NH2
Take B3: the “EC50, cAMP” value with human GIP receptor was 0.0245 nM; with human GLP-1 receptor, 0.718 nM; with human glucagon receptor, greater than 9950 nM. Besides, the “Emax, cAMP” value with human GIP receptor came out at 92.4%.

B4: Example 82 (peptide)
peptide: YXEGTXTSDXSIXLDXKAQXEXIKXLIEGGPSSGAPPPS
modifications: Aib2, αMeF(2F)6, 4Pal10, αMeL13, Orn16, Aib20, αMeF22, αMeY25, K17 and K24: K(AEEA2-(γ-Glu)-CO-(CH2)12-CO2H), C-terminal NH2
Regarding B4, the results for the “EC50, cAMP” value with human GIP receptor, with human GLP-1 receptor and with human glucagon receptor were 0.0206 nM, 4.78 nM and greater than 9950 nM, respectively. In addition, the “Emax, cAMP” value with human GIP receptor is 81.4%.

B5: Example 101 (peptide)
peptide: YXEGTXTSDXSIXLDGKAQXEFIXXLIEGGKSSGAPPPS
modifications: Aib2, αMeF(2F)6, 4Pal10, αMeL13, Aib20, D-Glu24, αMeY25, K17 and K31: K(AEEA2-(γ-Glu)-CO-(CH2)12-CO2H), C-terminal NH2
For the molecule B5, the “EC50, cAMP” value was 0.0297 nM in the assay with human GIP receptor, 2.94 nM in the assay with human GLP-1 receptor and greater than 9950 nM with human glucagon receptor. Moreover, in the assay with human GIP receptor, the “Emax, cAMP” value was 92.1%.

B6: Example 5 (peptide)
peptide: YXEGTXTSDXSIXLDXKAQXEFIXXLIEGGKSSGAPPPS
modifications: Aib2, αMeF(2F)6, 4Pal10, αMeL13, Orn16, Aib20, D-Glu24, αMeY25, K17 and K31: K(AEEA2-(γ-Glu)-CO-(CH2)10-CH3), C-terminal NH2
As to B6, the “EC50, cAMP” value with human GIP receptor was 0.00585 nM; with human GLP-1 receptor it was 0.057 nM; with human glucagon receptor, greater than 9150 nM.

B7: Example 90 (peptide)
peptide: YXEGTXTSDVSIXLDXKAQXEFIXXLIEGGKSSGAPPPS
modifications: Aib2, αMeF(2F)6, αMeL13, Orn16, Aib20, D-Glu24, αMeY25, K17 and K31: K(AEEA2-(γ-Glu)-CO-(CH2)12-CO2H), C-terminal NH2
As to B7, the “EC50, cAMP” value with human GIP receptor was 0.0436 nM; in the assay with human GLP-1 receptor, 0.221 nM; with human glucagon receptor it was greater than 9950 nM. Also, the “Emax, cAMP” value in the assay with human GIP receptor worked out at 93%; with human GLP-1 receptor, 96.2%.

B8: Example 86 (peptide)
peptide: YXEGTXTSDXSIXLDXQAQXEFIXXLIKGGKSSGAPPPS
modifications: Aib2, αMeF(2F)6, 4Pal10, αMeL13, Orn16, Aib20, D-Glu24, αMeY25, K28 and K31: K(AEEA2-(γ-Glu)-CO-(CH2)12-CO2H), C-terminal NH2
Consider B8, for which the “EC50, cAMP” value is 0.0184 nM in the assay with human GIP receptor, 0.359 nM with human GLP-1 receptor and greater than 9950 nM with human glucagon receptor. Further, the “Emax, cAMP” value with human GIP receptor amounted to 94.2%.

B9: Example 95 (peptide)
peptide: YXEGTXTSDXSIXLDXKAQXEFIXXLIEGGKSSGAPPPS
modifications: Aib2, αMeF(2F)6, Ac4c10, αMeL13, Orn16, Aib20, D-Glu24, αMeY25, K17 and K31: K(AEEA2-(γ-Glu)-CO-(CH2)12-CO2H), C-terminal NH2
In the case of B9, the “EC50, cAMP” value with human GIP receptor was 0.0748 nM; in the assay with human GLP-1 receptor it was 0.181 nM; with human glucagon receptor, greater than 9950 nM.

B10: Example 89 (peptide)
peptide: YXEGTXTSDXXIXLDXKAQXEFIXXLIEGGKSSGAPPPS
modifications: Aib2, αMeF(2F)6, 4Pal10, Aib11, αMeL13, Orn16, Aib20, D-Glu24, αMeY25, K17 and K31: K(AEEA2-(γ-Glu)-CO-(CH2)12-CO2H), C-terminal NH2
In the case of B10, the “EC50, cAMP” value with human GIP receptor is 0.0301 nM; with human GLP-1 receptor, 1.03 nM; in the assay with human glucagon receptor it was greater than 9950 nM. The “Emax, cAMP” value with human GIP receptor stood at 88.9%.

B11: Example 88 (peptide)
peptide: YXEGTXTSDXSIXLDXKAQXEXIXXLIEGGKSSGAPPPS
modifications: Aib2, αMeF(2F)6, 4Pal10, αMeL13, Orn16, Aib20, αMeF(2F)22, D-Glu24, αMeY25, K17 and K31: K(AEEA2-(γ-Glu)-CO-(CH2)12-CO2H), C-terminal NH2
Take B11: the “EC50, cAMP” value was 0.00884 nM with human GIP receptor, 6.08 nM with human GLP-1 receptor and greater than 9950 nM in the assay with human glucagon receptor. Also, the figures for the “Emax, cAMP” value with human GIP receptor and with human GLP-1 receptor were 85.1% and 97.1%, respectively.

B12: Example 103 (peptide)
peptide: YXEGTXTSDXSIXLDXKAQXGFIXXLIEGGKSSGAPPPS
modifications: Aib2, αMeF(2F)6, 4Pal10, αMeL13, Orn16, Aib20, D-Glu24, αMeY25, K17 and K31: K(AEEA2-(γ-Glu)-CO-(CH2)12-CO2H), C-terminal NH2
As to B12, the entries for the “EC50, cAMP” value with human GIP receptor, with human GLP-1 receptor and with human glucagon receptor were 0.0305 nM, 2.1 nM and greater than 9950 nM, respectively. Further, the “Emax, cAMP” value in the assay with human GIP receptor worked out at 92.8%.

B13: Example 99 (peptide)
peptide: YXEGTXTSDXSIXLDXKAQXEXIXXLIEGGKSSGAPPPS
modifications: Aib2, αMeF(2F)6, 4Pal10, αMeL13, Orn16, Aib20, 2Nal22, D-Glu24, αMeY25, K17 and K31: K(AEEA2-(γ-Glu)-CO-(CH2)12-CO2H), C-terminal NH2
With B13, the results for the “EC50, cAMP” value with human GIP receptor, with human GLP-1 receptor and with human glucagon receptor were 0.0235 nM, 0.349 nM and greater than 9950 nM, respectively.
